Biological target: cynomolgus CD3 on mfCD3 engineered Jurkat cells (cynomolgus CD3ε and CD3δ in place of the human versions) (cynomolgus) (UniProt Q95LI5)
Test: flow cytometry on mfCD3 engineered Jurkat cells, median EC50, n=2

Sequence of REGN5458 (bsAb25441D), anti-BCMA x anti-CD3 bispecific antibody (VH): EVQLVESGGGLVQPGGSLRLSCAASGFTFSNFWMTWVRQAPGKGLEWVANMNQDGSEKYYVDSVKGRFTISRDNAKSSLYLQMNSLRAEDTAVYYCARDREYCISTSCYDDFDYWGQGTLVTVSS
Sequence of REGN5458 (bsAb25441D), anti-BCMA x anti-CD3 bispecific antibody (VH): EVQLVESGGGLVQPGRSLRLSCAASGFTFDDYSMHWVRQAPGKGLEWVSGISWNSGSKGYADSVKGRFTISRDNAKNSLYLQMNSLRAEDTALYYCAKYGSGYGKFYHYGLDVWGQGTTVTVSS
Sequence of REGN5458 (bsAb25441D), anti-BCMA x anti-CD3 bispecific antibody (VL): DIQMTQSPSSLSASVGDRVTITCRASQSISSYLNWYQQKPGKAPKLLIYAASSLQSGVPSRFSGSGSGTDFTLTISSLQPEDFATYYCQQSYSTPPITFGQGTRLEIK
Sequence of cynomolgus CD3 on mfCD3 engineered Jurkat cells (cynomolgus CD3ε and CD3δ in place of the human versions) (cynomolgus) (Q95LI5 22-198, stated change not applied, chain 1 of 2): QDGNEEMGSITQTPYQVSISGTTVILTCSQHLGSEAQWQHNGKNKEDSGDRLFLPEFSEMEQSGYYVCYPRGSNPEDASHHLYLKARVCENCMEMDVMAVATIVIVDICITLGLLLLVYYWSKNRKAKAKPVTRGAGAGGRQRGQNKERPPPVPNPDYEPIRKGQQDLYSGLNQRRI
Sequence of cynomolgus CD3 on mfCD3 engineered Jurkat cells (cynomolgus CD3ε and CD3δ in place of the human versions) (cynomolgus) (Q95LI8 22-171, stated change not applied, chain 2 of 2, further chain): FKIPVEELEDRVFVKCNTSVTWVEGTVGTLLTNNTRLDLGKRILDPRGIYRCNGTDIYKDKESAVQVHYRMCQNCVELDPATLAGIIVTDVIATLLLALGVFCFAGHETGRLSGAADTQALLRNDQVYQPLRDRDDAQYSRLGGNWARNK

EC50: 15.1 nM
Substance: REGN5458 (bsAb25441D), anti-BCMA x anti-CD3 bispecific antibody
